For assay [1], the target named is T1, human complement C1s enzyme (activated C1s) (human, UniProt P09871 16-437; P09871 438-688).
T1 sequence 1: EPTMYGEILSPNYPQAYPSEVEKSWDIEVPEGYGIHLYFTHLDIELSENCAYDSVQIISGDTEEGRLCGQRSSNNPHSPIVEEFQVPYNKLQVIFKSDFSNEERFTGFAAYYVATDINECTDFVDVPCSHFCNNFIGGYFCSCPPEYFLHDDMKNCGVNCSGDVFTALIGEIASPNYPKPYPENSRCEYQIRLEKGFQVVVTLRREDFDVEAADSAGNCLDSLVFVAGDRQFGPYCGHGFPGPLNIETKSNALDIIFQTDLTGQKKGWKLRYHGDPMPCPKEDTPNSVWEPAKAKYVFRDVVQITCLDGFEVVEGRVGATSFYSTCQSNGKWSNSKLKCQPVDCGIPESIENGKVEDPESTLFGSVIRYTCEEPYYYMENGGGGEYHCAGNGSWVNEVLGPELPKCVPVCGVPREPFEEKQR
T1 sequence 2: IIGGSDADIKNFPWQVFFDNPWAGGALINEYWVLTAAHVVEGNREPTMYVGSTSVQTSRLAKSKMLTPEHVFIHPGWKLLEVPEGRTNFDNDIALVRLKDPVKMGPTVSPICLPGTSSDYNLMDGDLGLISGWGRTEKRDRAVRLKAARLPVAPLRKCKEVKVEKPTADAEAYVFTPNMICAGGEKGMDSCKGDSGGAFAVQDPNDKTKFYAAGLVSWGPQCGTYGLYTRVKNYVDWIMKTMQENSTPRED
In words: cell-based or functional assay.

Assay [2] concerns the target T1, human complement C1s enzyme (activated …). The assay is described as follows: SPR, purified protein. For orientation: SPR reads the build-up and loss of mass on a sensor chip optically.
The target is the same in assay [3]. In words: cell-based or functional assay. The source holds these as a separate data set.
For assay [4] the target is unchanged. The assay is described as follows: cell-based or functional assay. This is another data set of the same source.
Assay [5] has the same target. The assay is described as follows: cell-based or functional assay. The source holds these as a separate data set.
Assay [6] shares this target. In words: cell-based or functional assay. The source holds these as a separate data set.
The target is the same in assay [7]. In words: cell-based or functional assay. This is another data set of the same source.
The target of assay [8] is cynomolgus C1s (cynomolgus). In words: method not given.
The target of assay [9] is T1, human complement C1s enzyme (activated …). The assay is described as follows: method not given.
Assay [10] shares this target. The assay is described as follows: BLI (Octet), biotinylated target on streptavidin sensor. For orientation: Biolayer interferometry detects binding as a change in optical thickness at a sensor tip.
Assay [11] shares this target. In words: BLI (Octet), biotinylated target on streptavidin sensor; protein purified to >98%. The source says:
(§1) Bio-layer interferometry (BLI) was used to assess the recombinant proteins' target engagement to and binding affinity for complement C1s enzyme (active C1s or “C1s” herein) and factor Bb (Bb) (Complement Technology, Tyler, TX, USA). C1s and Bb were biotinylated with EZ-Link™ Sulfo-NHS-LC-LC-Biotin (Thermo Fisher, Waltham, MA, USA) according to manufacturer instructions. Biotinylated C1s or Bb was loaded on Octet® Streptavidin (SA) Biosensors (Sartorius, Göttingen, Germany), followed by a concentration range of purified proteins. To assess dual target engagement, biotinylated active C1s or Bb was loaded onto sensors, followed by purified proteins (“first association phase”), followed by the non-captured complement target (Bb or active C1s, non-biotinylated; “second association phase”). The assays were performed at 30° C. using PBS with 0.1% Tween 20 as a diluent (FIG. 3).

Assay [12] has the same target. The assay is described as follows: BLI (Octet), biotinylated target on streptavidin sensor; mixture of the two scFabs from construct #9.
Excerpt: as §1

Assay [13] shares this target. The assay is described as follows: BLI (Octet), biotinylated target on streptavidin sensor; partially purified mixture of the two scFabs from construct #9.
Excerpt: as §1
The third expression construct, construct #9 (FIGS. 2B and 21), is composed of a bidirectional minCBA promoter driving expression of separate transcripts encoding human codon-optimized αBb scFab or αC1s scFab [αC1s scFab+αBb scFab], each followed by a bGH poly (A) signal.

Assay [14] has the same target. The assay is described as follows: BLI (Octet), biotinylated target on streptavidin sensor; mixture of the two scFabs from construct #9; mixture of the two scFabs from construct #9.
Assay [15] shares this target. The assay is described as follows: BLI (Octet), biotinylated target on streptavidin sensor. The source holds these as a separate data set.

The Kd is the free concentration of one partner at which half of the binding sites on the other are occupied at equilibrium, for simple one-to-one binding. One may read the koff as the first-order rate constant of dissociation. A word on the kon: it is the rate constant with which the complex forms.

B1: anti-C1s scFab (construct #2) (Fab)
chain: DIVLTQSPDSLAVSLGERATISCKASQSVDYDGDSYMNWYQQKPGQPPKILIYDASNLESGIPARFSGSGSGTDFTLTISSLEPEDFAIYYCQQSNEDPWTFGGGTKVEIKRTVAAPSVFIFPPSDEQLKSGTASVVCLLNNFYPREAKVQWKVDNALQSGNSQESVTEQDSKDSTYSLSSTLTLSKADYEKHKVYACEVTHQGLSSPVTKSFNRGECGGGGSGGGGSGGGGSGGGGSGGGGSGGGGSGGGGSQVQLVQSGAEVKKPGASVKLSCTASGFNIKDDYIHWVKQAPGQGLEWIGRIDPADGHTKYAPKFQVKVTITADTSTSTAYLELSSLRSEDTAVYYCARYGYGREVFDYWGQGTTVTVSSASTKGPSVFPLAPCSRSTSESTAALGCLVKDYFPEPVTVSWNSGALTSGVHTFPAVLQSSGLYSLSSVVTVPSSSLGTKTYTCNVDHKPSNTKVDKRV
notes: Single-chain Fab: LC-(G4S)7-HC (VH-CH1); there it stood in a mixture with the anti-Bb scFab; also called αC1s scFab; Purified anti-C1s scFab
Consider B1, for which, in assay [1], the “Wieslab CP IC50 of #9-derived fragments, fold of purified anti-C1s Fab” value was around 25 fold. Moreover, the dissociation constant Kd is 0.3 nM in assay [2]; 0.016 nM in [8]; 0.34 nM in assay [9]; 0.3 nM in assay [10]; 0.3 nM in assay [11]; 1.8 nM in assay [13]. For the same molecule, the Kd in assay [14] is 1.9 nM. The “Wieslab classical pathway IC50” value in assay [3] is 6.7 nM. In addition, the “CP IC50 (Wieslab), mixture of scFabs from construct #9” value in [4] stood at 157 nM. In [5], the “IC50 CP Wieslab EIA” value is 7.2 nM. Also, the “IC50 CP (Wieslab)” value in assay [6] came to 7.2 nM. In assay [6], the “IC50 CP (Wieslab), mixture of scFabs from construct #9” value is 157 nM. Further, the “IC50 (nM), complement activation with CP and AP activated simultaneously in vitro” value in [7] was 97.3 nM. In addition, the dissociation rate constant (koff) in assay [12] came to 0.00028 s⁻¹. In addition, in assay [12], the kon worked out at 150000 M⁻¹ s⁻¹.

B2: parental anti-C1s Fab (Fab, V domains shown)
VH: QVQLVQSGAEVKKPGASVKLSCTASGFNIKDDYIHWVKQAPGQGLEWIGRIDPADGHTKYAPKFQVKVTITADTSTSTAYLELSSLRSEDTAVYYCARYGYGREVFDYWGQGTTVTVSS
VL: DIVLTQSPDSLAVSLGERATISCKASQSVDYDGDSYMNWYQQKPGQPPKILIYDASNLESGIPARFSGSGSGTDFTLTISSLEPEDFAIYYCQQSNEDPWTFGGGTKVEIKR
notes: also called Purified anti-C1s Fab
Consider B2, for which the Kd in [2], in [15] and in assay [10] was 0.3 nM each time. Also, the “Wieslab classical pathway IC50” value in assay [3] was found to be 5.5 nM. For the same molecule, the “CP IC50 (Wieslab)” value in [4] was found to be 6 nM. Besides, the “IC50 CP (Wieslab)” value in [6] is 5.4 nM. Moreover, the “IC50 (nM), complement activation with CP and AP activated simultaneously in vitro” value in assay [7] is 68.2 nM.

Source of the values: patent US20240401082A1 (Sanofi, published 2024).
